In patent CN113461812A (BEIJING LUFEI BIOTECHNOLOGY CO LTD, dated 2021):

Columns and labels:
[1] = target: T1, 新型冠状病毒RBD蛋白 (野生型) (SARS-CoV-2, UniProt P0DTC2 319-541); assay: SPR (Biacore), 1:1 binding fit
T1 construct: domain: RBD; also called WT; 新冠病毒RBD蛋白野生型

[2] = target: 新型冠状病毒(假病毒) S蛋白 (SARS-CoV-2, UniProt P0DTC2 14-1273); assay: cell-based or functional assay

B1: 人源化新冠病毒中和性抗体nCoV-00D (antibody, V domains shown)
VH: QVQLQQSGAELVKPGASVKLSCKTSGYTFTRYYIYWVKQRPGQGLEWIGEINPNNGGTNFNEKFKSKATLTVDKSSNTAYMQLSSLTSEDSAVYYCTIFITTVIARDYWGQGTLVTVSA
VL: DIVLTQSPASLAVSLGQRATISCRASESVEYSGTTLMQWFQQKPGQPPKLLIYAASNVESGVPARFSGSGSGTDFSLNIHPVEEDDVAMYFCHQSREVPWTFGGGTKLEIKR
notes: also called nCoV-00D抗体
Kd [1]: 0.532 nM | koff [1]: 0.000133 s⁻¹ | kon [1]: 251000 M⁻¹ s⁻¹ | IC50, 假病毒中和试验 (Huh7细胞, 荧光素酶值) [2]: ~9 ng/mL
